# Numbered stars: 1 amine (or outer) side, 2 acyl side, 3 side chain; on linkers, the order of the positions; unused ones are H or OH. Bridge positions count the residues as written; N and C are the ends. Side chains are listed from the residue outwards. Ends that are not written are not given here. * marks the point of attachment. C20 diacid = O=C(O)CCCCCCCCCCCCCCCCCCC(=O)*; γGlu = O=C(O)[C@H](CCC(=O)[*:2])N[*:1]; AEEA = NCCOCCOCC(=O)O
# T1: human amylin receptor (amylin 3(a) receptor: human calcitonin receptor with RAMP-3) (human, UniProt P30988 25-474; O60896 24-148)
# T1 construct: whole, on cells; also called hAmylin-R; hAmylinR
# T1 sequence (looked up) 1: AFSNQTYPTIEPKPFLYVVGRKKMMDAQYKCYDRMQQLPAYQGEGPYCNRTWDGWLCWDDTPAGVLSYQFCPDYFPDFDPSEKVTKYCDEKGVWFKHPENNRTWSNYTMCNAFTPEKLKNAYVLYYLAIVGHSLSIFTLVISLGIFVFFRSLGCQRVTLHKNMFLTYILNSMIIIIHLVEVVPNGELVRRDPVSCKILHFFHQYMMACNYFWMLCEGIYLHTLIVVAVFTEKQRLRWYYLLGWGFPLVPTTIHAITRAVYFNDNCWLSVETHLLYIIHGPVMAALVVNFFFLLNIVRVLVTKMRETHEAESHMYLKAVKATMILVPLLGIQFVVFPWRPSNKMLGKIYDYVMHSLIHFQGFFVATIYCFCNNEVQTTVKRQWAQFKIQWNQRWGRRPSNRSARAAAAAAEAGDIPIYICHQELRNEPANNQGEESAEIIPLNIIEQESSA
# T1 sequence (looked up) 2: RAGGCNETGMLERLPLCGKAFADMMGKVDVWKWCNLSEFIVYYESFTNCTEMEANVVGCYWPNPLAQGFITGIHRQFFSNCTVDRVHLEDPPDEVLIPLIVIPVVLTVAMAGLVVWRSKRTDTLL
# Target: T1, human amylin receptor (amylin 3(a) …)
# Assay: SPA displacement of 125I-rat amylin, hAmylin 3(a) receptor membranes
# Method: The binding assay was performed using scintillation proximity assay (SPA) beads (RPNQ0001) from PerkinElmer and cell membranes from the Amylin 3(a)/CRE-luc cells (as described in Assay (II)) were used. Membranes were prepared in the following way; the cells were rinsed with PBS and incubated with Versene for approximately 5 min before harvesting. The cells were flushed with PBS and the cell-suspension was centrifuged for 5 min at 1000 rpm. Cells were homogenized (ultrathurrax) in a buffer containing 20 mM Na-HEPES and 10 mM EDTA (pH 7.4) and centrifuged at 20.000 rpm for 15 min. The resulting pellet was resuspended, homogenized and centrifuged (20.000 rpm, 15 min) in a buffer containing 20 mM Na-HEPES and 0.1 mM EDTA (pH 7.4, buffer 2). The resulting pellet was resuspended in buffer 2 and protein concentration was measured (BCA protein Assay, Pierce). The homogenate was kept cold during the whole procedure. The membranes were kept at −80° C. until use. The assay was performed in a 384 well Optiplate (PerkinElmer) in a total volume of 40 ul. Membranes were mixed with SPA beads. Final concentration of membranes 35 ng/μL final and SPA beads was 0.05 mg/well. Test-compounds were dissolved in DMSO and further diluted in assay buffer (50 mM Hepes, pH 7.4, 1 mM CaCl2, 5 mM MgCl₂, 0.1% OA and 0.02% Tween20). […] The final mixture was incubated with shaking at 400 rpm for 120 min at 25° C. prior to centrifugation (1500 rpm, 10 min). Samples were analyzed on TopCounter™ (Packard). The IC₅₀ was calculated using (one site binding competition analysis) GraphPad Prism5 as a measure of receptor affinity.
row,Binder,IC50 [nM]
1,"{C20 diacid-γGlu}-KCNTATCATQRLAEFLRHSSPNFGAIPSSTPVGSNTY-NH2 (disulfide 2-7; SMILES CC[C@H](C)[C@H](NC(=O)[C@H](C)NC(=O)CNC(=O)[C@H](Cc1ccccc1)NC(=O)[C@H](CC(N)=O)NC(=O)[C@@H]1CCCN1C(=O)[C@H](CO)NC(=O)[C@H](CO)NC(=O)[C@H](Cc1c[nH]cn1)NC(=O)[C@H](CCCNC(=N)N)NC(=O)[C@H](CC(C)C)NC(=O)[C@H](Cc1ccccc1)NC(=O)[C@H](CCC(=O)O)NC(=O)[C@H](C)NC(=O)[C@H](CC(C)C)NC(=O)[C@H](CCCNC(=N)N)NC(=O)[C@H](CCC(N)=O)NC(=O)[C@@H](NC(=O)[C@H](C)NC(=O)[C@@H]1CSSC[C@H](NC(=O)[C@H](CCCCN)NC(=O)CC[C@H](NC(=O)CCCCCCCCCCCCCCCCCCC(=O)O)C(=O)O)C(=O)N[C@@H](CC(N)=O)C(=O)N[C@@H]([C@@H](C)O)C(=O)N[C@@H](C)C(=O)N[C@@H]([C@@H](C)O)C(=O)N1)[C@@H](C)O)C(=O)N1CCC[C@H]1C(=O)N[C@@H](CO)C(=O)N[C@@H](CO)C(=O)N[C@H](C(=O)N1CCC[C@H]1C(=O)N[C@H](C(=O)NCC(=O)N[C@@H](CO)C(=O)N[C@@H](CC(N)=O)C(=O)N[C@H](C(=O)N[C@@H](Cc1ccc(O)cc1)C(N)=O)[C@@H](C)O)C(C)C)[C@@H](C)O, also called 31; compound 31)",0.204
2,"{C20 diacid-γGlu}-KCNTATCATQRLAHFLRHSSPNFGAIPSSTNVGSETY-NH2 (disulfide 2-7; SMILES CC[C@H](C)[C@H](NC(=O)[C@H](C)NC(=O)CNC(=O)[C@H](Cc1ccccc1)NC(=O)[C@H](CC(N)=O)NC(=O)[C@@H]1CCCN1C(=O)[C@H](CO)NC(=O)[C@H](CO)NC(=O)[C@H](Cc1c[nH]cn1)NC(=O)[C@H](CCCNC(=N)N)NC(=O)[C@H](CC(C)C)NC(=O)[C@H](Cc1ccccc1)NC(=O)[C@H](Cc1c[nH]cn1)NC(=O)[C@H](C)NC(=O)[C@H](CC(C)C)NC(=O)[C@H](CCCNC(=N)N)NC(=O)[C@H](CCC(N)=O)NC(=O)[C@@H](NC(=O)[C@H](C)NC(=O)[C@@H]1CSSC[C@H](NC(=O)[C@H](CCCCN)NC(=O)CC[C@H](NC(=O)CCCCCCCCCCCCCCCCCCC(=O)O)C(=O)O)C(=O)N[C@@H](CC(N)=O)C(=O)N[C@@H]([C@@H](C)O)C(=O)N[C@@H](C)C(=O)N[C@@H]([C@@H](C)O)C(=O)N1)[C@@H](C)O)C(=O)N1CCC[C@H]1C(=O)N[C@@H](CO)C(=O)N[C@@H](CO)C(=O)N[C@H](C(=O)N[C@@H](CC(N)=O)C(=O)N[C@H](C(=O)NCC(=O)N[C@@H](CO)C(=O)N[C@@H](CCC(=O)O)C(=O)N[C@H](C(=O)N[C@@H](Cc1ccc(O)cc1)C(N)=O)[C@@H](C)O)C(C)C)[C@@H](C)O, also called 30; compound 30)",0.919
3,"{C20 diacid-γGlu}-KCNTATCATQRLAEFLRHSSPNFGAILPSTNVGSETY-NH2 (disulfide 2-7, also called 33; compound 33)",0.915
4,"{C20 diacid-γGlu}-KCNTATCATQRLAEFLRHSSPNFGAIPSSTNVGSETY-NH2 (disulfide 2-7; SMILES CC[C@H](C)[C@H](NC(=O)[C@H](C)NC(=O)CNC(=O)[C@H](Cc1ccccc1)NC(=O)[C@H](CC(N)=O)NC(=O)[C@@H]1CCCN1C(=O)[C@H](CO)NC(=O)[C@H](CO)NC(=O)[C@H](Cc1c[nH]cn1)NC(=O)[C@H](CCCNC(=N)N)NC(=O)[C@H](CC(C)C)NC(=O)[C@H](Cc1ccccc1)NC(=O)[C@H](CCC(=O)O)NC(=O)[C@H](C)NC(=O)[C@H](CC(C)C)NC(=O)[C@H](CCCNC(=N)N)NC(=O)[C@H](CCC(N)=O)NC(=O)[C@@H](NC(=O)[C@H](C)NC(=O)[C@@H]1CSSC[C@H](NC(=O)[C@H](CCCCN)NC(=O)CC[C@H](NC(=O)CCCCCCCCCCCCCCCCCCC(=O)O)C(=O)O)C(=O)N[C@@H](CC(N)=O)C(=O)N[C@@H]([C@@H](C)O)C(=O)N[C@@H](C)C(=O)N[C@@H]([C@@H](C)O)C(=O)N1)[C@@H](C)O)C(=O)N1CCC[C@H]1C(=O)N[C@@H](CO)C(=O)N[C@@H](CO)C(=O)N[C@H](C(=O)N[C@@H](CC(N)=O)C(=O)N[C@H](C(=O)NCC(=O)N[C@@H](CO)C(=O)N[C@@H](CCC(=O)O)C(=O)N[C@H](C(=O)N[C@@H](Cc1ccc(O)cc1)C(N)=O)[C@@H](C)O)C(C)C)[C@@H](C)O, also called 22; compound 22)",0.794

# Now those with a lower IC50, led by results:
row,IC50 [nM],Binder
1,0.196,"{C20 diacid-γGlu-γGlu}-KCNTATCATQRLAEFLRHSSPNFGAIPSSTNVGSNTP-NH2 (disulfide 2-7; SMILES CC[C@H](C)[C@H](NC(=O)[C@H](C)NC(=O)CNC(=O)[C@H](Cc1ccccc1)NC(=O)[C@H](CC(N)=O)NC(=O)[C@@H]1CCCN1C(=O)[C@H](CO)NC(=O)[C@H](CO)NC(=O)[C@H](Cc1c[nH]cn1)NC(=O)[C@H](CCCNC(=N)N)NC(=O)[C@H](CC(C)C)NC(=O)[C@H](Cc1ccccc1)NC(=O)[C@H](CCC(=O)O)NC(=O)[C@H](C)NC(=O)[C@H](CC(C)C)NC(=O)[C@H](CCCNC(=N)N)NC(=O)[C@H](CCC(N)=O)NC(=O)[C@@H](NC(=O)[C@H](C)NC(=O)[C@@H]1CSSC[C@H](NC(=O)[C@H](CCCCN)NC(=O)CC[C@H](NC(=O)CC[C@H](NC(=O)CCCCCCCCCCCCCCCCCCC(=O)O)C(=O)O)C(=O)O)C(=O)N[C@@H](CC(N)=O)C(=O)N[C@@H]([C@@H](C)O)C(=O)N[C@@H](C)C(=O)N[C@@H]([C@@H](C)O)C(=O)N1)[C@@H](C)O)C(=O)N1CCC[C@H]1C(=O)N[C@@H](CO)C(=O)N[C@@H](CO)C(=O)N[C@H](C(=O)N[C@@H](CC(N)=O)C(=O)N[C@H](C(=O)NCC(=O)N[C@@H](CO)C(=O)N[C@@H](CC(N)=O)C(=O)N[C@H](C(=O)N1CCC[C@H]1C(N)=O)[C@@H](C)O)C(C)C)[C@@H](C)O, also called 14; compound 14)"
2,0.143,"KCNTATCATQRLAEFLRHSSPNFGAIPSSTNVGSNTY (C20 diacid-gGlu on alpha amino group of N-terminal Lys 1; Cys2-Cys7 disulfide; C-terminal amide, also called compound 9) [N^α1-[(4S)-4-carboxy-4-(19-carboxynonadecanoylamino)butanoyl]-[Glu14,Arg17,Pro21,Pro27]-h-amylin]"
3,0.119,"K([AEEA-C20 diacid])CNTATCATQRLANFLRHSSPNFGAIPSSTNVGHNTY-NH2 (disulfide 2-7; N-terminus assumed; SMILES CC[C@H](C)[C@H](NC(=O)[C@H](C)NC(=O)CNC(=O)[C@H](Cc1ccccc1)NC(=O)[C@H](CC(N)=O)NC(=O)[C@@H]1CCCN1C(=O)[C@H](CO)NC(=O)[C@H](CO)NC(=O)[C@H](Cc1c[nH]cn1)NC(=O)[C@H](CCCNC(=N)N)NC(=O)[C@H](CC(C)C)NC(=O)[C@H](Cc1ccccc1)NC(=O)[C@H](CC(N)=O)NC(=O)[C@H](C)NC(=O)[C@H](CC(C)C)NC(=O)[C@H](CCCNC(=N)N)NC(=O)[C@H](CCC(N)=O)NC(=O)[C@@H](NC(=O)[C@H](C)NC(=O)[C@@H]1CSSC[C@H](NC(=O)[C@@H](N)CCCCNC(=O)COCCOCCNC(=O)CCCCCCCCCCCCCCCCCCC(=O)O)C(=O)N[C@@H](CC(N)=O)C(=O)N[C@@H]([C@@H](C)O)C(=O)N[C@@H](C)C(=O)N[C@@H]([C@@H](C)O)C(=O)N1)[C@@H](C)O)C(=O)N1CCC[C@H]1C(=O)N[C@@H](CO)C(=O)N[C@@H](CO)C(=O)N[C@H](C(=O)N[C@@H](CC(N)=O)C(=O)N[C@H](C(=O)NCC(=O)N[C@@H](Cc1c[nH]cn1)C(=O)N[C@@H](CC(N)=O)C(=O)N[C@H](C(=O)N[C@@H](Cc1ccc(O)cc1)C(N)=O)[C@@H](C)O)C(C)C)[C@@H](C)O, also called 91; compound 91) [N^ε1-[2-[2-[2-(19-carboxynonadecanoylamino)ethoxy]ethoxy]acetyl]-[Arg17,Pro21,Pro27,His34]-h-amylin]"
4,0.072,"{C20 diacid-γGlu}-KCNTATCATQRLAEFLRHSSPNFGAIPSSTNVGSNTP-NH2 (disulfide 2-7, also called compound 8)"
